The results in this text go back to US7858348B2, “N-acetyl-(R,S)-beta-amino acid acylase gene” (Ajinomoto Co., Inc., priority 2006, dated 2010).

This data set in a line: N-acetyl-β-amino acid acylase activity and optical selectivity of purified enzymes and cell-free extracts. Format: biochemical. The following applies: 30° C.; for Specific activity: purified enzyme after Mono-Q, 10 mM N acetyl-(R,S)-β-Phe, 50 mM Tris-HCl (pH 7.6); for Optical specificity (β-Phe enantiomer produced): purified enzyme, N-acetyl-(R,S)-β-Phe, 30 minutes. How it is done:
10 mM N acetyl-(R,S)-β-Phe, 50 mM Tris-HCl (pH 7.6), and a reaction solution containing a suitable enzyme sample were left standing from 15 minutes to 2 hours at 30° C., and then processed by boiling for 5 minutes to stop the reaction. The reaction solution was centrifuged. The supernatant was suitably diluted and then analyzed by HPLC. Acylase activity that produced 1 μmol of (R)-β-Phe or (S)-β-Phe per minute under these standard reaction conditions was defined as one unit. Activity producing (R)-β-Phe from N-acetyl-(R,S)-β-Phe will be referred to as N-acetyl-(R)-β-Phe acylase activity and activity producing (S)-β-Phe will be referred to as N-acetyl-(S)-β-Phe acylase activity hereinafter.
(R)-β-Phe, (S)-β-Phe, N-acetyl-(R)-β-Phe, and N-acetyl-(S)-β-Phe were quantitatively analyzed. The column employed was an Inertsil ODS3 (0.46 cm in diameter, 5 cm) made by GL Science and a Chiralpak WH (0.46 cm in diameter, 25 cm) made by Daisel Chemical Industries, arranged consecutively in that order. The mobile phase was 0.25 mM CuSO4, 2 percent (v/v) acetonitrile. The flow rate was 1.5 mL/minute. The column temperature was 50° C. Detection was conducted with a UV detector at 210 nm. In this analysis, the above four compounds eluted out at different elution times. The elution sequence, in order of elution speed, was (S)-β-Phe, (R)-β-Phe, N-acetyl-(R)-β-Phe, and N-acetyl-(S)-β-Phe. The quantities were calculated from the peak area values relative to various standard products.
An Inertsil Ph-3 (0.46 cm in diameter, 25 cm) column made by GL Science was employed. The mobile phase was 10 percent acetonitrile (adjusted to pH 3.0 with phosphoric acid). The temperature was 40° C. The flow rate was 1.0 mL/min. Detection was conducted under UV conditions of 210 nm and peak area values were calculated based on comparison with various standard racemic products.
Optical selectivity was measured using the purified enzymes as enzyme sources. Reactions were conducted under the above enzyme conditions for a period of 30 minutes. The quantity of enzyme added was 4.6 μg/mL (N-acetyl-(R)-β-amino acid acylase) or 3.1 μg/mL (N-acetyl-(S)-β-amino acid acylase).
The K83 strain obtained was precultured for 16 hours at 37° C. in LB medium containing 100 mg/L of ampicillin. A 1 mL quantity of the cultured bacterial cells was transferred to 50 mL of TB medium containing 100 mg/L of ampicillin and 1 mM of IPTG and cultured for 16 hours at 30° C. […] When the N-acetyl-β-amino acid acylase activity was measured under the separation conditions of N-acetyl-β-Phe and β-Phe, a value of 2.3 U/mg was obtained.
JM109/ptrp4—3BR was cultured for 16 hours at 37° C. in LB medium containing 100 mg/L of ampicillin. […] The quantity of β-Phe produced was measured by HPLC. […]

B1: N-acetyl-(S)-β-amino acid acylase: enzyme purified from Burkholderia sp. AJ110349, subunit about 41 kDa, SEQ. ID. NO. 10 (protein)
chain: MDFCQMNDLASRKGRIQTVLGLIDPHELGPALMHEHLLIDLVPPKLAEDADHDQTEIDLCNCWKINYGQVPSLKNYRLDQKDVAVEELLEMRAAGGSAIVDLTTGGLKPDPQGLAQISREAGVHVVMGCGHYVHEYQDAANAHRSVDDFASEMIGQITEGAWGTQVRAGIIGEIGCQSPWTEQEKRVVRGALIAQQETGAALNIHPGRHAEQPQEVIDTIKSLGYPVERVIISHIDRTIFDDTRLLRLADSGCVIELDLFGWEQSAYPMSDIDMPNDGARLRMVRTLLDHGHAERVLISHDICTRTRLGRYGGHGYQHIFANVVPRMLRRDFTQDEIDTLLTRNPRRLLTFV
modifications: Burkholderia sp.AJ110349
notes: enzyme purified from Burkholderia sp; ID; NO; 10
With B1, the Specific activity came out at 13.1 U/mg and the “Optical specificity (β-Phe enantiomer produced)” value is on record as “Only the production of (S)-β-Phe was observed”.

B2: N-acetyl-(R)-β-amino acid acylase: enzyme purified from Burkholderia sp. AJ110349, subunit about 84 kDa, SEQ. ID. NO. 8 (protein)
chain: MITITGYSDVLSAGPGETVEFKVSSKSPHPFTAELVRVIHADPNPAGPGMRFEPLGQVFSGTFASFDKPLLPGSFARVSGVPAAGSAAGLVAGARIRPTALARGDQCVMSQWNTARHAGFALLVSERGLELRLGAGTGEPPVCVLCAARLEVRWYDVWFAIDTASNRIEVGVTEVDGSVAAPVRHRTLQMLDARWRAPHSDDAADLLIGALEDGAGRRAHFNGQIEAPFVADALPSPATPAATVEYAAPRASDFSTDALYAAWDFARGIDTLKIADTTPHARHGTLQNLPTRAVRSSAWNGRERCWRTAPAHYAAIHFHDDDLHDAGWSTDFAFTVPATLKSGAYAMRLSVDGATDYLPFYVRPELGRPGAPLVFVAATYTYQAYANYARGNFDAALRDKVGRWGAYPHNPDDHPEVGLATYNLHSDGSGVMFSSRLRPMLTMRPGFLTFDDSRGSGCRHYIADSHLLDWLEHEGFSFDVVTDDDLERFGAALLEPYAAVLTGTHPEYHTAATLDALAGYKRSGGNLAYLGGNGFYWRVGRSERVPGALEVRRTEGGVRAWAAEAGEYFHALDGEYGGLWRSSARTPQQLVGVGFSSQGPFEGSHYRVLDAARSQPGGSLLKDIAGPLFGGYGLSGGGAAGFELDSTEAADGTPANVIILARSESHSAAFGPALDALLSHTATRARKTPDTLIRSEIVYYETGYGGAVFSVGSITFCGALSHNDYRNDVSTLLRNVLIRFSRDRGAQAHAVPAVAHTEVD
modifications: Burkholderia sp. AJ110349
On to B2, for which the Specific activity is 12.4 U/mg and the “Optical specificity (β-Phe enantiomer produced)” value is listed as “only the production of (R)-β-Phe was observed”.
